In patent US20210324066A1 one finds MFI and % Recovery data, which are given here for one substance.

In experiment [1] the target is LIGHT standard recombinant antigen (UniProt O43557). The experiment can be described thus: Simoa sandwich immunoassay, Enzo ALX-804-841-C100 capture with ProSci RF16062 detection, free LIGHT in diluent; uninhibited signal in the inhibition formula.
For experiment [2] the target is unchanged. Put plainly: Simoa sandwich immunoassay, Enzo ALX-804-841-C100 capture with ProSci RF16062 detection, free LIGHT in diluent; signal inhibited by DcR3 as competitor.
The target of experiment [3] is native free LIGHT (TNFSF14) in serum and plasma samples (UniProt O43557). Put plainly: antibody competition: serum and plasma samples incubated with 50 µg/mL free capture antibody for 35 minutes before the Simoa free LIGHT assay; treated against untreated sample concentration.

With Enzo ALX-804-841-C100 (antibody), the values for the MFI in experiment [1] and in experiment [2] were 9940 MFI and 361 MFI, respectively. The same substance registered a % Recovery in experiment [3] of 0%.
